The nature of data set [1]: ζ-potential / isoelectric point by DLS (Zetasizer). It is filed as physicochemical. As to the method:
HD diameter, polydispersity index and ζ-potential were measured using the Zetasizer Nano ZS instrument (Malvern […]) at Sydney Analytical, the University of Sydney. CSIRO samples were measured on a Malvern Instruments Zetasizer Nano instrument ZEN3600 with a 4 mW 633 nm He–Ne gas laser. […] HD diameter and polydispersity index measurements were performed using backscatter (173°) data collection with three repeats of 12–15 measurements per sample. All the samples were analysed in disposable folded capillary cells. […] 1 mg/ml solutions (5 mL total volume) were prepared for each solution. pH was adjusted to pH 3 with 1 M HCl using a pH meter. Images were collected as the pH was raised by the addition of 1 M NaOH. Images show the product solution at each pH. […] Data expressed as the mean ± s.d. (n = 3 independent batches). ζ-potential of each sample was measured using DLS. Data expressed as the mean ± s.d. (n = 3 independent batches).

Data set [2] is described as follows: Insulin loading capacity on QDs (14C-INS, dialysis). It is filed as physicochemical. On the procedure: Three individual experiments (batches) were performed per group.
Data set [3] is described as follows: HPLC–MS of released insulin. In kind it is physicochemical. As to conditions: release by hydrolysis for 28 days at 23 °C. On the procedure: Cleavage of CS/GS and removal of QDs were promoted by enzyme co-incubation (i). […] Release was promoted by hydrolysis for 28 days at 23 °C. […] Oleic acid was used as a positive control of cellular uptake and activity. […] Data points, mean ± s.d. shown [n = 3 independent experiments (a and b); n = 3 biologically independent cells (d and e) and one-way ANOVA with Tukey’s correction; α = 0.05]. a and b created with BioRender.com.

Another data set deals with C57BL/6J mice. The data set is described as follows: Oral glucose tolerance test (oGTT). The note with it: n = 5; for effect of constituents on oGTT AUC: QD 0.6 µg, QD-INS 0.6 µg, 20 IU/kg, CS/GS 10 µg, QD-CS/GS 0.6 µg, 10 µg, insulin alone given orally 100 IU/kg, 15 min before glucose. It is filed as in vivo. As to the method:
oGTT was performed following a 4-h fast. BG was measured using a handheld glucometer using Accu-Chek proforma strips. Blood was collected following a tail snip. BG was collected prior and for 90 min after an oral bolus of 2 g kg^–1 glucose solution. The AUC was determined based on the mmol l^–1 × min.

A short description of data set [4]: Appearance and solubility by optical density at pH 3 to 9. It is filed as physicochemical. The note with it: 1 mg/ml solutions (5 mL), pH raised from 3 to 9 with 1 M NaOH, mean of n = 3 independent batches. As to the method:
1 mg/ml solutions (5 mL total volume) were prepared for each solution. pH was adjusted to pH 3 with 1 M HCl using a pH meter. Images were collected as the pH was raised by the addition of 1 M NaOH. Images show the product solution at each pH. […] Data expressed as the mean ± s.d. (n = 3 independent batches). ζ-potential of each sample was measured using DLS. Data expressed as the mean ± s.d. (n = 3 independent batches).

Data set [5] is described as follows: Blood pharmacokinetics of 14C-INS in mice. As to conditions: subcutaneous 2 IU kg^–1, 14C-INS in blood, n = 3. In kind it is in vivo, C57BL/6J mice. On the procedure: (§1) For biodistribution studies, the mice were not fasted before either a subcutaneous injection of ^14C-INS (100,000 DPM, 2 IU kg^–1) or a gavage of QD-^14C-INS–CS/GS or ^14C-INS (100,000 DPM, 20 IU kg^–1). Gavage was performed using an oesophageal gavage needle and delivered in a single rapid dose (100 µl). Blood samples were collected from a tail snip (20 µl) over 0–8 h. Mice were euthanized by a single intraperitoneal injection of 100 mg kg^–1 ketamine and 10 mg kg^–1 xylazine in saline at 0.5, 2.0 and 24.0 h post-gavage. Then, 200–250 mg of tissue samples was collected from the liver, spleen, kidneys, lungs, muscles, fat and small intestine (duodenum) along with 100 μl of blood.
(§2) Tissue and blood samples were weighed, mixed with 1 ml solvable solution and incubated at 60 °C for 4 h to dissolve. Then, 0.2 ml of 30% H2O2 was added to reduce the dark colour saturation. […] Samples were mixed with 10 ml scintillation fluid (five measurements per sample). Baseline measurements were collected from control mice (n = 3) that were not treated with radioactive samples. Data were collected and analysed as disintegrations per minute.

Data set [6] is described as follows: Tissue biodistribution of 14C-INS in mice. It is filed as in vivo, C57BL/6J mice. The note with it: for tissue distribution, in words: SC-INS 2 IU kg^–1 s.c., QD-INS–CS/GS and Oral-INS 20 IU kg^–1 by gavage. On the procedure: as §1, §2
The test system of a further data set is NOD/ShiLtJ mice. The data set is described as follows: Insulin tolerance test (ITT) in NOD diabetic mice. In kind it is in vivo. On the procedure: Ten-week-old female NOD/ShiLtJ mice were obtained from the Animal Resource Centre in Perth. Animals were housed at the ANZAC Research Institute animal house on a 12-h light/dark cycle and provided with ad libitum access to food and water; 20–25 °C; 50–60% relative humidity; and bedding, ventilated caging systems and enrichment as per the ARRIVE guidelines. NOD/ShiLtJ mice were monitored weekly for BG changes, with mice developing T1D between weeks 12 and 24 in 90% of female mice. Diabetic mice were identified following two repeat BG measurements at >11.1 mmol l^–1.
ITT was performed with/without a 4-h fast. BG was measured using a handheld glucometer using Accu-Chek proforma strips. Blood was collected from a tail snip. […] The AUC was determined based on mmol l^–1 × min.

The next data set relates to NOD mice. The data set is described as follows: Two-week chronic dosing in NOD mice. As to conditions: chronic 2-week subcutaneous dosing. It is filed as in vivo, NOD/ShiLtJ mice. On the procedure:
Early and moderate diabetic mice were given a single treatment of SC-INS (1 IU kg^–1) or QD-INS–CS/GS (25 IU kg^–1), whereas late diabetics were given 4 and 100 IU kg^–1, respectively. An ITT was performed with BG collected at 0.25, 0.50, 0.75 and 1.00 h. […] BG was recorded daily and was maintained below 11.1 mmol l^–1 for the duration of treatment. […] BG was recorded daily and was maintained between 15 and 25 mmol l^–1 for the duration of treatment. […] Data points, mean ± s.d. shown (n = 5 biologically independent animals; one-way ANOVA with Tukey’s correction (a) and two-tailed unpaired t-test; α = 0.05 (c, e and f)).

In data set [7] the test system is STZ-treated rats. The data set is described as follows: ITT in STZ-treated rats. The note with it: SC-INS 5–40 IU kg^–1; QD-INS–CS/GS 10–150 IU kg^–1; n = 5. In kind it is in vivo, Wistar rats. As to the method: After a month of acclimation and animal handling, rats were given a single intraperitoneal injection of STZ (65 mg kg^–1) and provided with high-glucose water (10%) for 2 days. Animals were monitored and BG checked for 10 days post-injection. Diabetic rats were identified following two repeat BG measurements at >11.1 mmol l^–1.
ITT was performed as above; rats were treated with 5–40 IU kg^–1 SC-INS or 10–150 IU kg^–1 QD-INS–CS/GS. All the ITT data presented in this manuscript used n = 5 mice per group.

The test system of data set [8] is STZ-treated rats. Nature of the data set: Chronic dosing in STZ-treated rats. In kind it is in vivo, Wistar rats. The note with it: 40 IU kg^–1 day^–1 subcutaneous. On the procedure: Rats were maintained on either treatment for 2–6 weeks, with BG measured morning and evening (prior and 1 h post-injection).
Following experimentation, the rats were euthanized by a single intraperitoneal injection of 75 mg kg^–1 ketamine and 10 mg kg^–1 xylazine in saline. Blood, liver and pancreas tissue samples were collected. Plasma was collected and analysed for biochemistry and lipid parameters as above.

A short description of a further data set: Stability by NMR. It is filed as physicochemical. As to conditions: 1 mg/ml in MQ water, 23 °C, 60% humidity with light exposure, 7 and 28 days. On the procedure:
Individual sample stock was prepared in 90% MQ water and 10% D2O at pH 7. For NMR data acquisition, 550 µl samples from each stock were transferred to a 5 mm NMR tube. All one-dimensional ^1H experiments (water suppression pulse sequence, zgesgp; time domain, 32 K; relaxation delay, 2 s; spectral width, 12.5 ppm; number of scans, 256) were collected on a Bruker 800 MHz spectrometer using a Z-gradient TCI probe at 298 K. Two-dimensional [^1H,^1H] NOESY spectra were collected on a 600 MHz spectrometer with a cryoprobe at 298 K. Data were collected and processed using TopSpin. The water offset was set to 4.697 ppm. Before Fourier transformation from the time domain to the frequency domain, the time-domain data were zero filled twice, and an exponential decay function with a line-broadening factor of 5 Hz was multiplied. Data were processed using TopSpin. For stability measurements, the samples were stored at a lab temperature of ~295 ± 2 K.
Extended Data Fig. 4 NMR characterization and stability of QD-INS–CS/GS and 2D [^1H,^1H]-NOESY NMR characterization of CS/GS. […] Stability of samples were evaluated at 1 mg/ml, in MQ water solution, 23 °C, 60% humidity with light exposure for 7 and 28 days. […] (b) Left panel: 2D [^1H, ^1H]-NOESY spectrum of maltose. Right panel: 2D [^1H, ^1H]-NOESY spectrum of chitosan and glucose (CS/GS) copolymer. […]

[9] abbreviates: 0.5 h, subcutaneous 2 IU kg^–1, n = 3.
The mark [10] stands for this setting: 2 h, subcutaneous 2 IU kg^–1, n = 3.

Consider “QD-INS: insulin bound to 3-MPA-capped Ag2S QDs by EDC/NHS chemical crosslinking”, for which, in data set [1], the “ζ-potential at pH 7” value was “negative”. For the same substance, the “ζ-potential between pH 3 and pH 6” value in [1] (n = 3 independent batches) was “near-zero”. The “maximum insulin retention (loading capacity of insulin onto QDs)” value in [2] (14C-INS, 10 kDa dialysis, QDs 0.5–35.2 µg ml^–1, insulin 5.0 µg ml^–1, n = 3 batches) stood at 80%. Further, in [2] (based on the molar ratios), the “insulin molecules per QD” value is reported as 1–2. Moreover, in [3], the “released insulin present as monomer” value is listed as 87.5%. Besides, the “effect of constituents on oGTT AUC” value in the data set on C57BL/6J mice is “no differences compared to controls”.
The Tmax is the time from dosing to the highest level. For insulin human recombinant, in data set [4], the “pH at which the material is insoluble” value turned out to be 5. Besides, in data set [5], the Cmax is 0.1 IU ml^–1, the Tmax was 15 min and the T½ is 15 min. In data set [6] (setting [9]), the “distribution in the blood” value stood at 40%, the “distribution in the liver” value is 40% and the “distribution in the muscles/fat” value came out at 20%. In addition, in data set [6] (setting [10]), the “distribution in the kidneys” value stood at 10%, the “distribution in the liver” value is 50% and the “distribution in the small intestine” value is 20%. Further, the “tissue distribution, in words” value in [6] (listed as Oral-INS) was “remained in the small intestine”. Moreover, the “tissue distribution, in words” value in [6] (listed as SC-INS) is “greater distribution in the muscles and fat”. Further, the “effect of constituents on oGTT AUC” value in the data set with C57BL/6J mice is reported as “No effect on AUC”. Also, the “hypoglycaemia (BG < 3.0 mmol l^–1)” value in the data set with C57BL/6J mice (high dose 5 IU kg^–1 subcutaneous) was “induced hypoglycaemia”. Also, the “effect of escalating dosage on BG in ITT” value in the data set on NOD/ShiLtJ mice (SC-INS 0–2 IU kg^–1, QD-INS–CS/GS 0–50 IU kg^–1 by gavage) is “dose-dependent reduction in BG”. In addition, the “time to decrease of BG” value in the data set with NOD/ShiLtJ mice (subcutaneous 1 IU kg^–1) was no more than 15 min. For the same substance, in the data set on NOD/ShiLtJ mice (subcutaneous 1 IU kg^–1, single dose, n = 5), the “reduction in ITT AUC” value was 40%. The “time of return of BG to baseline post-treatment” value with NOD mice is 8 h. The “dose dependence in ITT” value in the data set with STZ-treated rats [7] is on record as “dose-dependent effect”. Also, in the data set on STZ-treated rats [8], the “time of return of BG to baseline” value is no more than 8 h. Also, the “stability of samples by NMR” value in the data set “Stability by NMR” was “minimal changes”.

For the origin of these results see publication PMC11026164 (Nature Nanotechnology, 2024).
